These results are taken from PMC7261492, “ISCU interacts with NFU1, and ISCU[4Fe-4S] transfers its Fe-S cluster to NFU1 leading to the production of holo-NFU1” (Journal of structural biology, 2020).

As usually defined, the stoichiometry N is a count of units in the complex or per binding partner. As usually defined, the Kd is the free concentration of one partner at which half of the binding sites on the other are occupied at equilibrium, for simple one-to-one binding. High values mean weaker binding, low ones tighter binding.

The target of series [1] is human apo-NFU1 (human) (UniProt Q9UMS0). In words: SAXS; apo-NFU1:ISCU complex isolated by SEC, dialysed against HNT buffer, 2-8 mg/mL, 298 K; molecular mass by the Vc approach.
Series [2] shares this target. In words: ITC; Nano ITC, 25 °C, HNT buffer; syringe 0.8 mM ISCU, cell (169 μL) 0.03 mM NFU1; 20 injections of 2.5 μL; fitted to a 1:1 binding mode.
Series [3] concerns the target T1, human ISCU (human), Q9H1K1.
T1 chain: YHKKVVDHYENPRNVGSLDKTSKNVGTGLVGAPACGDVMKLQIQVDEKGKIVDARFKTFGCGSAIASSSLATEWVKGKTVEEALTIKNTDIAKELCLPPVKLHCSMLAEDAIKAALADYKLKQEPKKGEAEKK
In words: SEC; anaerobic; mixture of [U-15N]-apo-NFU1 and ISCU[4Fe-4S] incubated 30 min, HiLoad Superdex 200 PG, HNT buffer, 1 mL/min; fractions analysed by SDS-PAGE. The note with it: remark: other sources report otherwise. (In gel filtration, larger molecules generally elute earlier.)

Series [4] concerns the molecule itself. The description is as above.

“human ISCU (from UniProt Q9H1K1 35-167) (natural protein)” displayed a stoichiometry N in the series with human apo-NFU1 (human) [1] of 1. In addition, the Kd in the series with human apo-NFU1 (human) [2] stood at 1100 nM.

B1: human ISCU, Q9H1K1 35-167 (natural protein)
chain: T1 chain
For B1, the stoichiometry N in series [3] turned out to be 2.

B2: human holo-NFU1 (natural protein, UniProt Q9UMS0 10-254, looked up)
chain: GAAAVAAGLRRRFCHMLKNPYTIKKQPLHQFVQRPLFPLPAAFYHPVRYMFIQTQDTPNPNSLKFIPGKPVLETRTMDFPTPAAAFRSPLARQLFRIEGVKSVFFGPDFITVTKENEELDWNLLKPDIYATIMDFFASGLPLVTEETPSGEAGSEEDDEVVAMIKELLDTRIRPTVQEDGGDVIYKGFEDGIVQLKLQGSCTSCPSSIITLKNGIQNMLQFYIPEVEGVEQVMDDESDEKEANSP
modifications: [4Fe-4S] cluster bound by C195 and C198; two NFU1 chains supply the four cysteine ligands of one cluster
notes: NFU1, human, with both the N-terminal domain (NTD) and the C-terminal domain (CTD); Same chain as m2 with the [4Fe-4S] cluster; trimer of cluster-linked dimers (hexamer, 160 kDa); also called NFU1[4Fe-4S]; hexameric holo-NFU1; source: prepared as described earlier (Cai et al., 2016); in the anaerobic SEC formed by adding ISCU[4Fe-4S] to [U-15N]-apo-NFU1
Regarding B2, the “stoichiometry N” value in series [4] amounted to 6.
